Drawing on patent publication US9958461B2, “Detection of protein to protein interactions” (THE GOVERNING COUNCIL OF THE UNIVERSITY OF TORONTO, priority 2013, dated 2018), this text covers EGFR-Wt mean, Wt/L858R and EGFR-L858R mean for eight molecules.

The chains are these.
B1: BAIAP2 (protein, UniProt Q9UQB8 1-552, looked up)
BAR/IMD domain-containing …: MSLSRSEEMHRLTENVYKTIMEQFNPSLRNFIAMGKNYEKALAGVTYAAKGYFDALVKMGELASESQGSKELGDVLFQMAEVHRQIQNQLEEMLKSFHNELLTQLEQKVELDSRYLSAALKKYQTEQRSKGDALDKCQAELKKLRKKSQGSKNPQKYSDKELQYIDAISNKQGELENYVSDGYKTALTEERRRFCFLVEKQCAVAKNSAAYHSKGKELLAQKLPLWQQACADPSKIPERAVQLMQQVASNGATLPSALSASKSNLVISDPIPGAKPLPVPPELAPFVGRMSAQESTPIMNGVTGPDGEDYSPWADRKAAQPKSLSPPQSQSKLSDSYSNTLPVRKSVTPKNSYATTENKTLPRSSSMAAGLERNGRMRVKAIFSHAAGDNSTLLSFKEGDLITLLVPEARDGWHYGESEKTKMRGWFPFSYTRVLDSDGSDRLHMSLQQGKSSSTGNLLDKDDLAIPPPDYGAASRAFPAQTASGFKQRPYSVAVPAFSQGLDDYGARSMSRNPFAHVQLKPTVTNDRCDLSAQGPEGREHGDGSARTLAGR
B2: PAK1 (protein, UniProt Q13153 2-545, looked up)
Serine/threonine-protein …: SNNGLDIQDKPPAPPMRNTSTMIGAGSKDAGTLNHGSKPLPPNPEEKKKKDRFYRSILPGDKTNKKKEKERPEISLPSDFEHTIHVGFDAVTGEFTGMPEQWARLLQTSNITKSEQKKNPQAVLDVLEFYNSKKTSNSQKYMSFTDKSAEDYNSSNALNVKAVSETPAVPPVSEDEDDDDDDATPPPVIAPRPEHTKSVYTRSVIEPLPVTPTRDVATSPISPTENNTTPPDALTRNTEKQKKKPKMSDEEILEKLRSIVSVGDPKKKYTRFEKIGQGASGTVYTAMDVATGQEVAIKQMNLQQQPKKELIINEILVMRENKNPNIVNYLDSYLVGDELWVVMEYLAGGSLTDVVTETCMDEGQIAAVCRECLQALEFLHSNQVIHRDIKSDNILLGMDGSVKLTDFGFCAQITPEQSKRSTMVGTPYWMAPEVVTRKAYGPKVDIWSLGIMAIEMIEGEPPYLNENPLRALYLIATNGTPELQNPEKLSAIFRDFLNRCLEMDVEKRGSAKELLQHQFLKIAKPLSSLTPLIAAAKEATKNNH
B3: SH3GL2 (protein, UniProt Q99962 1-352, looked up)
Endophilin-A1: MSVAGLKKQFHKATQKVSEKVGGAEGTKLDDDFKEMERKVDVTSRAVMEIMTKTIEYLQPNPASRAKLSMINTMSKIRGQEKGPGYPQAEALLAEAMLKFGRELGDDCNFGPALGEVGEAMRELSEVKDSLDIEVKQNFIDPLQNLHDKDLREIQHHLKKLEGRRLDFDYKKKRQGKIPDEELRQALEKFDESKEIAESSMFNLLEMDIEQVSQLSALVQAQLEYHKQAVQILQQVTVRLEERIRQASSQPRREYQPKPRMSLEFPTGDSTQPNGGLSHTGTPKPSGVQMDQPCCRALYDFEPENEGELGFKEGDIITLTNQIDENWYEGMLHGHSGFFPINYVEILVALPH
B4: Shc1 (protein, UniProt P98083 1-579, looked up)
SHC-transforming protein 1: MDLLPPKPKYNPLRNESLSSLEEGASGSTPPEELPSPSASSLGPILPPLPGDDSPTTLCSFFPRMSNLKLANPAGGRLGPKGEPGKAAEDGEGSAGAALRDSGLLPLLQDMNKLSGGGGRRTRVEGGQLGGEEWTRHGSFVNKPTRGWLHPNDKVMGPGVSYLVRYMGCVEVLQSMRALDFNTRTQVTREAISLVCEAVPGAKGATRRRKPCSRPLSSILGRSNLKFAGMPITLTVSTSSLNLMAADCKQIIANHHMQSISFASGGDPDTAEYVAYVAKDPVNQRACHILECPEGLAQDVISTIGQAFELRFKQYLRNPPKLVTPHDRMAGFDGSAWDEEEEEPPDHQYYNDFPGKEPPLGGVVDMRLREGAARPTLPSAQMSSHLGATLPIGQHAAGDHEVRKQMLPPPPCPGRELFDDPSYVNIQNLDKARQAGGGAGPPNPSLNGSAPRDLFDMKPFEDALRVPPPPQSMSMAEQLQGEPWFHGKLSRREAEALLQLNGDFLVRESTTTPGQYVLTGLQSGQPKHLLLVDPEGVVRTKDHRFESVSHLISYHMDNHLPIISAGSELCLQQPVDRKV
B5: HDAC7 (protein, UniProt Q8WUI4 1-952, looked up)
Histone deacetylase 7: MDLRVGQRPPVEPPPEPTLLALQRPQRLHHHLFLAGLQQQRSVEPMRLSMDTPMPELQVGPQEQELRQLLHKDKSKRSAVASSVVKQKLAEVILKKQQAALERTVHPNSPGIPYRTLEPLETEGATRSMLSSFLPPVPSLPSDPPEHFPLRKTVSEPNLKLRYKPKKSLERRKNPLLRKESAPPSLRRRPAETLGDSSPSSSSTPASGCSSPNDSEHGPNPILGSEALLGQRLRLQETSVAPFALPTVSLLPAITLGLPAPARADSDRRTHPTLGPRGPILGSPHTPLFLPHGLEPEAGGTLPSRLQPILLLDPSGSHAPLLTVPGLGPLPFHFAQSLMTTERLSGSGLHWPLSRTRSEPLPPSATAPPPPGPMQPRLEQLKTHVQVIKRSAKPSEKPRLRQIPSAEDLETDGGGPGQVVDDGLEHRELGHGQPEARGPAPLQQHPQVLLWEQQRLAGRLPRGSTGDTVLLPLAQGGHRPLSRAQSSPAAPASLSAPEPASQARVLSSSETPARTLPFTTGLIYDSVMLKHQCSCGDNSRHPEHAGRIQSIWSRLQERGLRSQCECLRGRKASLEELQSVHSERHVLLYGTNPLSRLKLDNGKLAGLLAQRMFVMLPCGGVGVDTDTIWNELHSSNAARWAAGSVTDLAFKVASRELKNGFAVVRPPGHHADHSTAMGFCFFNSVAIACRQLQQQSKASKILIVDWDVHHGNGTQQTFYQDPSVLYISLHRHDDGNFFPGSGAVDEVGAGSGEGFNVNVAWAGGLDPPMGDPEYLAAFRIVVMPIAREFSPDLVLVSAGFDAAEGHPAPLGGYHVSAKCFGYMTQQLMNLAGGAVVLALEGGHDLTAICDASEACVAALLGNRVDPLSEEGWKQKPNLNAIRSLEAVIRVHSKYWGCMQRLASCPDSWVPRVPGADKEEVEAVTALASLSVGILAEDRPSEQLVEEEEPMNL
B6: MAPK8 (protein, UniProt P45983 1-427, looked up)
Mitogen-activated protein …: MSRSKRDNNFYSVEIGDSTFTVLKRYQNLKPIGSGAQGIVCAAYDAILERNVAIKKLSRPFQNQTHAKRAYRELVLMKCVNHKNIIGLLNVFTPQKSLEEFQDVYIVMELMDANLCQVIQMELDHERMSYLLYQMLCGIKHLHSAGIIHRDLKPSNIVVKSDCTLKILDFGLARTAGTSFMMTPYVVTRYYRAPEVILGMGYKENVDLWSVGCIMGEMVCHKILFPGRDYIDQWNKVIEQLGTPCPEFMKKLQPTVRTYVENRPKYAGYSFEKLFPDVLFPADSEHNKLKASQARDLLSKMLVIDASKRISVDEALQHPYINVWYDPSEAEAPPPKIPDKQLDEREHTIEEWKELIYKEVMDLEERTKNGVIRGQPSPLGAAVINGSQHPSSSSSVNDVSSMSTDPTLASDTDSSLEAAAGPLGCCR
B7: MAP3K3 (protein, UniProt Q99759 1-626, looked up)
Mitogen-activated protein …: MDEQEALNSIMNDLVALQMNRRHRMPGYETMKNKDTGHSNRQSDVRIKFEHNGERRIIAFSRPVKYEDVEHKVTTVFGQPLDLHYMNNELSILLKNQDDLDKAIDILDRSSSMKSLRILLLSQDRNHNSSSPHSGVSRQVRIKASQSAGDINTIYQPPEPRSRHLSVSSQNPGRSSPPPGYVPERQQHIARQGSYTSINSEGEFIPETSEQCMLDPLSSAENSLSGSCQSLDRSADSPSFRKSRMSRAQSFPDNRQEYSDRETQLYDKGVKGGTYPRRYHVSVHHKDYSDGRRTFPRIRRHQGNLFTLVPSSRSLSTNGENMGLAVQYLDPRGRLRSADSENALSVQERNVPTKSPSAPINWRRGKLLGQGAFGRVYLCYDVDTGRELASKQVQFDPDSPETSKEVSALECEIQLLKNLQHERIVQYYGCLRDRAEKTLTIFMEYMPGGSVKDQLKAYGALTESVTRKYTRQILEGMSYLHSNMIVHRDIKGANILRDSAGNVKLGDFGASKRLQTICMSGTGMRSVTGTPYWMSPEVISGEGYGRKADVWSLGCTVVEMLTEKPPWAEYEAMAAIFKIATQPTNPQLPSHISEHGRDFLRRIFVEARQRPSAEELLTHHFAQLMY
B8: WASF3 (protein, UniProt Q9UPY6 1-502, looked up)
Actin-binding protein WASF3: MPLVKRNIEPRHLCRGALPEGITSELECVTNSTLAAIIRQLSSLSKHAEDIFGELFNEANNFYIRANSLQDRIDRLAVKVTQLDSTVEEVSLQDINMKKAFKSSTVQDQQVVSKNSIPNPVADIYNQSDKPPPLNILTPYRDDKKDGLKFYTDPSYFFDLWKEKMLQDTEDKRKEKRRQKEQKRIDGTTREVKKVRKARNRRQEWNMMAYDKELRPDNRLSQSVYHGASSEGSLSPDTRSHASDVTDYSYPATPNHSLHPQPVTPSYAAGDVPPHGPASQAAEHEYRPPSASARHMALNRPQQPPPPPPPQAPEGSQASAPMAPADYGMLPAQIIEYYNPSGPPPPPPPPVIPSAQTAFVSPLQMPMQPPFPASASSTHAAPPHPPSTGLLVTAPPPPGPPPPPPGPPGPGSSLSSSPMHGPPVAEAKRQEPAQPPISDARSDLLAAIRMGIQLKKVQEQREQEAKREPVGNDVATILSRRIAVEYSDSDDDSEFDENDWSD

One test addresses T1, EGFR-Wt (Homo sapiens, UniProt P00533).
T1 construct: with the advantage of testing full-length integral membrane proteins; (GGGGS)2 linker-Cub (human ubiquitin aa 35-76)-GAL4(1-147)-mNFkB(364-550) (C); expressed in transfected cells
Put plainly: MaMTH EGFR-interactor screen, lentiviral preys against EGFR-wildtype bait (interaction score). In kind it is cell-based. Conditions: MaMTH interaction score of prey with EGFR-Wt bait, mean. The gist of the method:
(§1)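 Interaction score is the luciferase fold-change versus averaged negative controls (Fabp5, Pex19, Pex7, GABBR2), with >1 called interacting. Luciferase was measured 24 h after triplicate bait transfection. This followed single-copy prey transduction (MOI ~0.3-0.4) of GAL4UAS-luciferase HEK293T cells and ≥48 h puromycin selection.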
In the case of B1, the EGFR-Wt mean is 4.83.

B2: the EGFR-Wt mean is on record as 1.50.

B3 had an EGFR-Wt mean of 4.58.

In turn, B4 came in with an EGFR-Wt mean of 13.89.

In turn, B5 gave an EGFR-Wt mean of 2.37.

Molecule B6 registered an EGFR-Wt mean of 3.30.

On to B7, for which the EGFR-Wt mean stood at 2.01.

Consider B8, for which the EGFR-Wt mean worked out at 1.30.

The subject of another test is EGFR-Wt. Described as above. In kind it is cell-based, human. The following applies: ratio of EGFR-Wt mean to EGFR-L858R mean interaction score. The gist of the method: as §1
For B1, the Wt/L858R is reported as 0.66.

As for B2, the Wt/L858R worked out at 0.55.

With B3, the Wt/L858R is on record as 0.58.

Consider B4, for which the Wt/L858R was 0.64.

For the molecule B5, the Wt/L858R was found to be 0.55.

As to B6, the Wt/L858R stood at 0.64.

On to B7, for which the Wt/L858R was found to be 0.58.

For B8, the Wt/L858R stood at 0.61.

Another test deals with T2, EGFR-L858R (Homo sapiens, UniProt P00533, L858R).
T2 construct: with the advantage of testing full-length integral membrane proteins; (GGGGS)2 linker-Cub (human ubiquitin aa 35-76)-GAL4(1-147)-mNFkB(364-550) (C); expressed in transfected cells
The experiment in a line: MaMTH EGFR-interactor screen, lentiviral preys against EGFR-L858R bait (interaction score). In kind it is cell-based. The following applies: MaMTH interaction score of prey with EGFR-L858R bait. An outline of the steps: as §1
B1 returned an EGFR-L858R mean of 7.37.

The molecule B2 registered an EGFR-L858R mean of 2.70.

B3 showed an EGFR-L858R mean of 7.85.

Molecule B4 returned an EGFR-L858R mean of 21.65.

Regarding B5, the EGFR-L858R mean is 4.35.

Regarding B6, the EGFR-L858R mean amounted to 5.13.

For B7, the EGFR-L858R mean came out at 3.46.

The molecule B8 showed an EGFR-L858R mean of 2.15.
